Experimental data published in the nanobody polyreactivity screen of Harvey et al. (2022).

Test: yeast display, Sf9 membrane polyspecificity reagent, FACS + sequencing; frameworks hold sequencing errors
How it was run: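 Polyreactivity labels are assigned by the sorting gate from which each nanobody was recovered. The gates were low and high (top ~1%), set on anti-HA fluorescence for expression and streptavidin fluorescence for reagent binding. Before sorting, galactose-induced (36–48 hours) yeast display cells were stained for 1 hour at 4 °C with 10% biotinylated, detergent-solubilized Sf9 membrane reagent.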

Row | Sequence | polyreactivity (PSR sort gate)
1 | QVQLVESGGGLVQAGGSLRLSCAASGSTFPPYAMGRYRQAPGKERELVAAIDWSDGTTYYADSVKGRFTISRDYAKNTVYLQMNSLKPEDTAVYYCAGSLSQSEYDYWGQGTQVTVSS | low polyreactivity
2 | QVQLVESGGRLVQPGGSLRLSCAASGFIFFYYAMGWYSQAPGKESELVAAISSGGSTNYADSVKGRFTISRDNAKNTVYLQMNSLKPEDTAVYYCAKRPTGGYKYYYTTSKYDYWGQGTQVTVSS | low polyreactivity
3 | QVQLVESGGGLVQAGGSLRLSCAASGLTFYGNAMGWYRQAPGKERELVAAISSSGGTTYYADSVKGRFTISRDNAKNTVYLQMNSLKPEDTAVYYYWGQGTQVTVSS | low polyreactivity
4 | QVQLVESGGGLVQAGGSLRLSCAASGRIFYRYAMGWYRQAPGKERELVAAIRYSGGRTYYADSVKGRFTISRDNAKNTVYLQMNSLKPEDTAVYYCAADGQWYYAPFRGGDYENDYWGQGTQVTVSS | low polyreactivity
5 | QVQLEESGGGLVQAGGSLPLSCAASGFIFGRYAMGWYRQAPGKEREFVASISWSGGSTYYADSVKGRFTISRDNAKNTVYLQMNSLKPEDTAVYYCAAYVRKDRSRGLYGYWGQGTQVTVSS | high polyreactivity
6 | QVQLVESGGGFVQAGGSLRLSCAASGSTFYHNAMGWYRPAPGKERELVAAISSGGSTHYADSVKGRFTISRDNEKNTVYLQKNILKPEDTAVYYCAKARPGFLYDHWGQGTQVTVSS | high polyreactivity
7 | QVQLVESGGGLVQAGGSLRLSCAASGRIFGYNAMGWYRQAPGKERELVATISGRGGSTYYADSVKGRFTISRDNAKNTVYLQMNSLKPEDTAVYYCNAKRKYGRFPKKYYYWGQGTQVTVSS | high polyreactivity
8 | QVQLVESGGGLVQAGGSLRLSCAASGSTFRHYAMGWYRQAPGKESELVAAISSTGGSTHNADSVKGRFTISRDNAKNTVFLQLHSLKPEDTAVDYCAARRLYWGQGTQVTVSS | high polyreactivity
9 | QVQLVESGGGIVQAGGSLRLSCAASGRIFLTNAMGWYRQAPGKERELVAAITSGGSTYYADSVKGRFTISRDNAKNTVYLQMNSLKPEDTAVFYCNADTDRYWPYEYDYWGQGTQVTVSS | low polyreactivity
10 | QVQLVESGGGLVQAGGSLRLSCAASGRIFRYNTLGWYRQAPGKERELVAAINSSGGRTYYADSVKGRFTISRDNAKNTVYLQMNSLKPEDTAVYYCAAVIYVLSGPGYDYWGQGTQVTVSS | high polyreactivity
11 | QVQLVESGGGLVQAGGSLRLSCAASGNTFRSYVMGWYRPAPGKARELVADISSGDGTNYADSVKGRFTISRDTAKNTVYLQMNSLKPEDTAVYYCAKDVYNFRSTHSYFTGYVSWGQGTQVTVSW | low polyreactivity
12 | QVQLVESGGGLVQAGGSLRLSCAASGRTLGRNAMGWYRHAPGKERELVARISYSGGRTYYADSVKGRFTISRDNAKNTVYLQMNSLKPEDTAVYYCATLGIVHQYDYWGQGTQVTVSS | low polyreactivity
13 | QVQLVESGGGLVQAGGRLRLSCAASGNIFKRYTMGWYRQAPGKERELVAAISGGDSTNYADSVKGRFTISRDNANNTFYLQMNSLKPEDTAVYYCAAGGLTLWHGYILGYWGQGTQVTVSS | low polyreactivity
14 | QVQLVESGGGLVQAGGSLRLICAASGFTINYYVMGWYRQAPGKERELVAAISGRGGSTYYADSVTGRFTISRDNAKNTVYLQMNSLNPEETAVYYCNKVFSIPWQGVRFDFWGQGTQVTVSS | high polyreactivity
15 | QVKLVESGGGLVQAGGILRLSCAASGSIIVGNPMGWYRQAPGKERELVAAISRSGGSTYYADSVKGRFTISRDIAKNTVYLQMNSLKPEDTEVYYCASVRKQASGVDYWGQGTQVPVSS | high polyreactivity
16 | QVQLVESGGGLVQAGGSLRLSCAASVRIFSGYAMGWYRQAPGKERELVAAISQRGGSTTYADSVKGRFTISRDNAKNTVYLQMNSLKPEDTAVYYCAKRYTYPSGYDYWGQGTQVTVSS | low polyreactivity
17 | QVQLVESGGGLVQAGGSLRLSCAASGSIFHANAMGWYRQAPGKERELVAAITRSGRSTYYADSVKGRFTISRDNAKNTVYLQMNSLKPEDTAVYYCAARYYAGGLSSYDYWGQGTQVTVSS | high polyreactivity
18 | QVQLVESGGGLVQAGGSLRLSCAASGFIFYSYAMGWNRQAPGKERELVADISRSGSTNYADSVKGRFTISRDNAKNTVYLQMNSLKPEDTAVYYCNKGYHSWSRLSQFGWSYDYWGQGTQVTVSS | high polyreactivity
19 | QVQLVESGGGLVQAGGSLRLSCAASGIIYWDYAMGWYRQAPGKEREYVAAINTSGGTTTYADSVKGRFTISRDNAKNTVYFQMNSLKREDTAVYYCAADPWVYYSYAYYSWGQGTQVTVSS | low polyreactivity
20 | QVQLEESGGGLVQAGGSLRLSCSASGLILHGYAMGWYRQAPGKERELVAAITRSGGRTYYADSVKGRFTISRDNAKYTVYLQMNSLKPEDTAVYYCAALGWSGRYRYDYWGQGTQVTVSS | high polyreactivity
21 | QVQLVESGGGLVQAGGSLRLSCDASGSIFRGNAMGWYRQAPGKERELVATITNGGSTNYADSVKGRFTISRDNAKNTVYLQMNSLKPEDTAVYYCNADHSYHIASTRHVDYWGQGTQVTVSS | low polyreactivity
22 | QVQLVESGGGLVQAGGSLRLSCAASGFTFYRYAMGWYRKAPGKERELVAAITRSGSRTYYADSVKGRFTISRDNAKNTVYLQMNSLKPEDTAVYYCKTDGGDHPTARYGYWGQGTQVTVSS | high polyreactivity
23 | QVQLVESVRGLVQAGGSLRLSCDASAFIFRSYAMGWNRQAPGKERELVAVISRRGVNTHYADSVKGRFSISRDNAKNTVYLQINSLKPEDTAVYYCAAELSYRGYPYDYWGQGTQVTVSS | high polyreactivity
24 | QDQLVDSGGGLVQAGGSLRLSCAASGSIQSRYAMGWYRQAPGKERELVAAISRSTDSTYYADSVKGRFTISRDNAKNTVYLKMNSLKPEDTAGYYCNAVYRSSYQKGSMDYWGQGTQVTVSS | high polyreactivity
25 | QVQLVESGGGLVQAGGSLRLSCAASGSIFGLYAMGWYRQAPGKERELVAAISASGGSTYYADSVKGRFTISRDNAKNTVYLQMNSLKPEDTAVYYCAKKQRYYGRMDYWGQGTQVTVSS | high polyreactivity
26 | QVQLVESGGGLVQAGGSLRLSCAASGGTFKRYAMGWYRQAPGKERELVAAISGRGGSTYYADSVKGRFTISRDNAKTTVYLQMNSLKPEDTAVYYCNAGGSPQFYGRSKGDYWGQATQVTVSS | high polyreactivity
27 | QVQLVESGGGLVQAGGSLRLSCAASGRTFYYNGMAWYRQAPGKERELVAAITSGGTTTYADSVKGLFTISRDNAKNSVYLQMNSVKPEETAVYYSNADYWAVNYDYCGQGTQVTVSS | low polyreactivity
28 | QVQLVESGGGLVQAGGSLRLSCAASGSIFRVNAMGWYRQAPGKERELVAAITSGGTTTYYADSVKGRFTISLDNAKNTVYLQMNSLKPEDTAVYYCSKYPYPIYHTDGDDWGQGTQVTVSS | low polyreactivity
29 | QVKLVESGGGLVQAGGSLRLSCAASGRTFRYNAMGWYRQEPGEERELVASITSGGSTNYADSVKGRFTISRDNAKNTVYLQMNRLKPEDTAVYYCAADERRPYWQHCIGSGRPFDYWGQGTQVTVSS | low polyreactivity
30 | QVQLVESGGGLVQAGGSLRLSCAASGRTFYGYPMGWYRQAPGKERELVAAISWSGGSTYYADSVKGRFTISRDNAKNTVYLQMNSLKPEDTAVYYCAAYTYSFRANHDYWGQGTQVTVSS | high polyreactivity
